Experimental findings from article PMC4861216 are described below.

The target of this assay is protamine-oligonucleotide nanoparticles (proticles) (salmon). The assay can be described thus: co-sedimentation.

Several values for one entry are separate records, joined by “and”; a condition that tells them apart may be missing. Equal values may be shown once.

As for “apolipoprotein A-I (from UniProt P02647 19-267) (natural protein)”, the percent of added apoA-I bound (5 ug apoA-I/10 ug ON) was 80%; the stoichiometry N (apoA-I molecules per nanoparticle) was 14000 and 15000.
